From the supplement of paper PMC9170038

Test system: MS2 coat protein
Experiment: apparent KD of MS2 coat protein; designed switch direction (-1 OFF switch, 1 ON switch): -1; higher = weaker reporter binding
In short: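 Stalled E. coli RNA polymerase transcribed designed RNA switches on Illumina chips, which were then titrated with SNAP-549-labelled MS2 coat protein, doubling from 0.7 or 1.5 nM to 3 µM. Steps lasted from 0.8–1.5 h at the lowest concentration to 10–20 min at the highest. The apparent KD is each design's median over clusters of curve-fitted normalised fluorescence.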

[1] = Eterna round: R95, input ligand: FMN 200 uM
[2] = Eterna round: R95, input ligand: microRNA oligo, concentration not stated
[3] = Eterna round: R95, input ligand: none
[4] = input ligand: microRNA oligo, concentration not stated

Sequence | apparent KD of MS2 coat protein (input ligand: FMN 200 uM) [nM] | apparent KD of MS2 coat protein (input ligand: none) [nM] | apparent KD of MS2 coat protein [1] [nM] | apparent KD of MS2 coat protein [2] [nM] | apparent KD of MS2 coat protein [3] [nM] | apparent KD of MS2 coat protein [4] [nM]
GUAGAGUCAGGAUAUACGAGAUCGAAAGAUCAGUGGUCCUUACAUGAGGAUCACCCAUGUAGAAGGGACUCUAC [Omei mod 12 to Eli's favorate candidate (ch.parushev)] (Eterna round: R97, puzzle: Exclusion 2) | 39.6 | 790 | – | – | – | –
GUAGAGUGAGGAUAUACGAGAUCGAAAGAUCGGCGAUCCAUACAUGAGGAUCACCCAUGUAGAAGGCACUCUAC [Eli x2 4.002] (Eterna round: R97, puzzle: Exclusion 2) | 521 | 26.3 | – | – | – | –
GUAGUGUUAGGAUAUCUGCCUCCGAGGUAUUCCAUGAAUAGAGAGAAGGGACAUGAGGAUCACCCAUGUGGGUA [Eternabot (L2) Solution 92] (Eterna round: R97, puzzle: Exclusion 4) | 90.5 | 295 | – | – | – | –
GUAGUUCGAGUUAGGAUAUGAUUAAAAUUCGGAUAUCAGAAGGAACUUGAGGAUCACCCAAGUAUAGAUGAUUC [JR_BMEx4_Sub058] (Eterna round: R97, puzzle: Brourd's mod of Exclusion 4) | 91.6 | 38.1 | – | – | – | –
GUAUAACAUGAGGAUCACCCAUGUGAGGAUAUGCGAAUUUCAUCAAAAGAUGAAAUUUGCAGAAGGCACAGUAC [Omei Ex1 A12] (Eterna round: R97, puzzle: Exclusion 1) | 93 | 66.3 | – | – | – | –
GUAUAACUACACGGGCUCAACAUGAGGAUCACCCAUGUCACAUACGCAAGCUUUUUGCUUGUCUUAUCUGUCCGUGA [Quleorraa] (puzzle: Sensor v3, turn-off variant 1) | – | – | 12.3 | 11.9 | 10.7 | –
GUAUAGCGAGGAUAUACAUGAGGAUCACCCAUGUGAUCCUUAGGCUGUACAAGCCAAUGUAGAAGGCGCAAAUU [jl-ex3.4.59 ViennaUCT mod] (Eterna round: R97, puzzle: Exclusion 3) | 75.7 | 147 | – | – | – | –
GUCAACGCAGGAUAUUAGAACUUUUACAUGAGGAUCACCCAUGUUAAUUGGGUCUAAGAAUAAGAAGGGCGAUGAA [JR_Ex5_Sub011] (Eterna round: R97, puzzle: Exclusion 5) | 15.8 | 14 | – | – | – | –
GUCACAUGGACAUAGGAUCACAUGAGGAUCACCCAUGUGACUAACAAGCUUUUUGUUCGUCUUAUGUCUAUGUGAAU [Stov1/16-B2] (Eterna round: R97, puzzle: Sensor, turn-off variant 1) | 13.2 | 12.3 | – | – | – | –
GUCAGCUCGUCAGGAUAUACAUGCGUGCUUCGGCACGUAUGAUAGAUCACAUGAGGAUCACCCAUGUAGAAGGGACGAGCUGAC [ENG2/4-B1] (Eterna round: R96, puzzle: Exclusion NG 2) | 13.2 | 12.5 | – | – | – | 9.92
GUCAGCUCGUCAGGAUAUAUUAACAUGAGGAUCACCCAUGUAAGAUCAGGCUUCGGCCAAUGUUAAUAGAAGGGACGAGCUGAC [ENG2/12-B1] (Eterna round: R96, puzzle: Exclusion NG 2) | 132 | 438 | – | – | – | 745
GUCAGCUCGUCAGGAUAUGAACAUGAGGAUCACCCAUGUAAGAUCAAGCUGCUUCGGCAGCAAGUUCAGAAGGGACGAGCUGAU [ENG2/10-B2] (Eterna round: R96, puzzle: Exclusion NG 2) | 167 | 104 | – | – | – | 136
GUCAGCUCGUGAGGAUAUACAUGCGUGCUUCGGCACGAAUUUAAGAUCACAUGAGGAUCACCCAUGUAGAAGGCACGAGCUGAC [ENG2/3-A1] (Eterna round: R96, puzzle: Exclusion NG 2) | 137 | 591 | – | – | – | 472
GUCAGCUCGUGAGGAUAUACAUGCGUGCUUCGGCACGUAUGAUAGAUCACAUGAGGAUCACCCAUGUAGAAGGCACGAGCUGAC [ENG2/4-A1] (Eterna round: R96, puzzle: Exclusion NG 2) | 18.8 | 12.9 | – | – | – | 11.1
GUCAGCUCGUGAGGAUAUAUAUACAUGAGGAUCACCCAUGUAAGAUCAGGCUUCGGCCAAUGUAUAUAGAAGGCACGAGCUGAU [ENG2/11-A2] (Eterna round: R96, puzzle: Exclusion NG 2) | 847 | 1120 | – | – | – | 695
GUCAGGAAUGUAGGAUAUCUGCACGAUUAGUGCAGAGAAGGACAUGAGGAUCACCCAUGUAUAGUAGCUUCGGCUACACCUGAC [ENG1-A1] (Eterna round: R96, puzzle: Exclusion NG 1) | 16.7 | 19.5 | – | – | – | 14
GUCAUCACACAUGGGAUCAACAUGAGGAUCACCCAUGUUGCCAAGUUGUUUGCACGUCUUAUCAUACGUUUUUCGAU [Mod-Jxi] (Eterna round: R97, puzzle: Sensor, turn-off variant 1) | 22.2 | 22.7 | – | – | – | –
GUCCAGGCAGGAUAUGUACAGGAGCACUUGAGGAUCACCCAAGUCCUCGUGUUGUUGUCAGCAGAAGGGCCCAUUA [Dizaquin] (Eterna round: R97, puzzle: Exclusion 5) | 529 | 187 | – | – | – | –
GUCCUACAUGAGGAUCACCCAUGUAAGGAUAUGCUAGCGGUCGGCUGACUGACUGCUAGCAGAAGGUACAUGAU (puzzle: Exclusion 1) | – | – | – | 15.6 | – | –
GUCCUCAUGACGCCUAAACACAUGAGGAUCACCCAUGUACAGGCUUUUUGUCGUCUUAUAAUAAAACCGAGGAUGCG [Xelaanen] (puzzle: Sensor v3, turn-off variant 1) | – | – | 24.4 | 319 | 29.8 | –
GUCCUGCAGCUUUGCUGUAGGCGUACAUGAGGAUCACCCAUGUAGGAUAUGGUAGGCUUUGCUUACUAGAAGGAUAGAGUGAUC [JL EXNG3 1.28] (Eterna round: R96, puzzle: Exclusion NG 3) | 43.1 | 38.4 | – | – | – | 7.08
GUCCUGGACUAUCACAAGCACAUGAGGAUCACCCAUGUCAUGGGUAGAUCCCUAAAUAAAGAUACUGCUCGUCUUAU [Cac sensor turnoff var1 sub6] (Eterna round: R97, puzzle: Sensor, turn-off variant 1) | 160 | 300 | – | – | – | –
GUCCUGGACUAUCACAAGCACAUGAGGAUCACCCAUGUCAUGGGUGGGUCACUAAGUACGGCUACUGCUCGUCUUAU [Cac Sensor turn off var1 sub8] (Eterna round: R97, puzzle: Sensor, turn-off variant 1) | 436 | 495 | – | – | – | –
GUCGAGUGAGGAUAUGGUGAGUAGUGCCAGAGCGCUGCUCACCAGAAGGCACAUGAGGAUCACCCAUGUAUGUC [Mat - Exclusion 4 - Mod of JL - D10] (puzzle: Exclusion 4) | – | – | – | 12.3 | – | –
GUCGUGCAGCUUUGCUGUACGAGUACAUGAGGAUCACCCAUGUAGGAUAUGGUACGCUUUGCGUGCCAGAAGGACGUGCGUUAG [salish99_ExNG3_r04_001] (Eterna round: R96, puzzle: Exclusion NG 3) | 53.3 | 39.3 | – | – | – | 35.2
GUCGUGUUAGGAUAUAACAACUACUAAUAAAUUAGUAGUUGUUAGAAGGAACAUGAGGAUCACCCAUGUAUGAC [-23.4, -22.9 kcal, A 36%] (Eterna round: R97, puzzle: Exclusion 4) | 192 | 43.1 | – | – | – | –
GUCGUGUUAGGAUAUGGCAACGGCUAGUAAACUAGUUGUUGUUAGAAGGAACAUGAGGAUCACCCAUGUAUGAC [-24.6, -24.1 kcal, A 30%] (Eterna round: R97, puzzle: Exclusion 4) | 98.1 | 34.4 | – | – | – | –
GUCUAGAGAGGAUAUAUUUACAGUGUACGUCGGAUGAUUGCACUUGAGGAUCACCCAAGUAGAAGGCUCGAGGG [EX2 #32] (Eterna round: R97, puzzle: Exclusion 2) | 457 | 303 | – | – | – | –
GUCUGAGCAGGAUAUACAUGAGGAUCACCCAUGUUGGUUCAGCGACGAUAGUCGCAAUGUAGAAGGGCUCAGAC [E3/9-D1] (Eterna round: R97, puzzle: Exclusion 3) | 73.5 | 258 | – | – | – | –
GUCUUCAUGACAUGAGGAUCACCCAUGUGUUAUAUGUUAACUAAGGAUAUAUUUUUAAUGUUGAGAUAGAAGGUAGUUUCGGUC [JR_ExcNG3_Sub091] (Eterna round: R96, puzzle: Exclusion NG 3) | 120 | 131 | – | – | – | 95.8
